Laboratory results taken from the nanobody polyreactivity screen of Harvey et al. (2022).

Experiment: yeast display, Sf9 membrane polyspecificity reagent, FACS + sequencing; frameworks hold sequencing errors
Procedure, shortened: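 In a synthetic yeast display library (Saccharomyces cerevisiae BJ5465), nanobody expression was induced with galactose for 36–48 hours. FACS gates were set low and high (top ~1%) using anti-HA fluorescence for expression and streptavidin fluorescence for binding of the Sf9 membrane reagent. Each polyreactivity label is drawn from the gate of origin.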

In the case of “QVQLVESGGGLVQAGGSLRLSCAASGRTFSFYDMGWYRQAPGKERELVAAINSGSSTYYADSVKGRFTISRDNANNTVYLQMNSLKPEDTEVYYCAAEPYFWWQNEYWGQGTQVTVSS”, the “polyreactivity (PSR sort gate)” value was “high polyreactivity”.

With “QVQLVESGGGLVQAGGSLRISCAASGFTFRWYTMGWYRQAPGKERELVAAISWSGTSTYYADSVKGRFTISRDNAKNTVYLQMNSLKPEDTAVYYCAAADFYYTGADDYWGQGTQVTVSS” the “polyreactivity (PSR sort gate)” value was “high polyreactivity”.

With “QVQLVESGGGLVQAGGSLRLSCAASGRIFVNYAMGWYRQAPVKERELVATITWSGGSTFYADSVKGRFTISRDNAKNTVYLQMNSLKPEDTAVYYCAQRGYVRSGLGRPYADDYWGQGTQLTVSS” the “polyreactivity (PSR sort gate)” value was “low polyreactivity”.

For “QVQLVESGGGLVQAGGSLRLSCAASGRIFAWDAMGRYRQAPGKERELVAAITWGGGRTYYADSVKGRFTISRDNAKNTVYLQMNSLKPEDTAVYYCAAYSYKEEAYRGVAQERDYWGQGTQVTVSS”, the “polyreactivity (PSR sort gate)” value was “low polyreactivity”.

For “QVQLVESGGGLVQAGGSLRLSCAASGSIFSKYTMGWYRQAPGKERELVAAIRGSGVRTYYADSVKGRFTISRDNAKNTVYLQMNSLKPEDTAVYYCAKVVYRGKVALWISSTAGSDYWGQGTQVTVSS”, the “polyreactivity (PSR sort gate)” value was “low polyreactivity”.

With “QVQLVESGGGLVQAGGSLRLSCAASGRIFDYYAMGWYRQAPGKERELVAAINSGGSTYYADSVKGRFTISRDNAKNTVYLQMNSLKPEDTAVYYCAAKSFAPIVDYWGQGTQVTVSS” the “polyreactivity (PSR sort gate)” value was “high polyreactivity”.

In the case of “QVQLVESGGGLVQAGGSLRLSCAASGFTFFKYAMGWYRQAPGKERELVAAITRNGGRTYYADSVKGRFTISRDYAKNTVYLQMNSLKPEDTAVYYCNAASVNGGRDFDYWGQGTQVTVSS”, the “polyreactivity (PSR sort gate)” value was “high polyreactivity”.

In the case of “QVQLVESGGGLVQAGGSLRLSCAASGFIFNHYAMGWYRQAPGKEREFVAAISWSGGSTYYADSVKGRFTISRDNAKNTVYLQMNSLKPEDTAVYYCAASYNGLWHGDYDYWGQGTQVTVSS”, the “polyreactivity (PSR sort gate)” value was “low polyreactivity”.

For “QVQLVESGGGLVQAGGSLRLSCAASGSIFRTNTMGWYRQAPGKERELVARINRGGRTYYADSVKGRFTISRDNAKNTVYLQMNSLKPEDTAVYYCAAAPFFPHWYGYDYWGQGTHVTVSS”, the “polyreactivity (PSR sort gate)” value was “high polyreactivity”.

For “QVQLVESGGGLVQAGGSLSISCAASGITLGHNAMGWYRQAPGKDRELVAAISWSGDRTFYADSVKGRFTISRDNAKNTVYLQMNSLKPEDTAVYYCNAEIGWHNEGRLSTYDYWGQGTQVTVSS”, the “polyreactivity (PSR sort gate)” value was “low polyreactivity”.

For “QVQLVESGVGLVQAGGSLRLSCAASGRIFRLYAMGWYRQAPGKERELVAAISSSGGDTYYADSVKGRFTISRDNAKNTVYLQMNSLKPEDTAVYDCNARKRYANVHYNYWGQGTQVTVSS”, the “polyreactivity (PSR sort gate)” value was “high polyreactivity”.

For “QVQLVESGGGLVQAGGSLRLSCAASGIIFDDNAMGGYRQAPGKERELVAAITYSGGSTYYADSVKGRFTISRDKAKNTVYLQMNSLKPEDTAVYYCAADNRPIVGSYYYWGQGTQVTVSS”, the “polyreactivity (PSR sort gate)” value was “low polyreactivity”.

In the case of “QVQLVESGGGLVQAGGSLRLSCAASGSIFPENAMGWYRQAPGKERELVAAINRGGSTYYADSVKGRFTISRDNAKNTVYLQMNSLKPVDTAVYYCAAEYSGWGYIFNYWGQGTQVTVSS”, the “polyreactivity (PSR sort gate)” value was “low polyreactivity”.

With “QVQLVESGGGLVQAGGSLRLSCAASGRTFTHNVMGRYRQAPGKERELVAGISSTGGSTYYADSVKGRFTISRDNAKNTVYLQMNSLKPEDTAVYYCAVIGYHYSAISPPSQTRQGYDYWGQGTQVTVSS” the “polyreactivity (PSR sort gate)” value was “low polyreactivity”.

In the case of “QVQLGESGGGLVQAGGSLRLSCAASGGTFARNTMGWYRQAPGKERELVAAITRGGSSTYYADSVKGRFTISRDYAKNTVYLQMNSLKPEDTAVYYCNKSLRWLYPYYGTTGRYDYWGQGTQVTVSS”, the “polyreactivity (PSR sort gate)” value was “high polyreactivity”.

In the case of “QVQLVESGGGLVQAGGSLRLSCAASGRTFSGYAMGWYRQAPGKERELVAGINWSGDSTYYADSVKGRFTISRDNAKNTVYLQMNSLKPEDTAVYYCAASRSGTYDWGQGTQVTVSS”, the “polyreactivity (PSR sort gate)” value was “high polyreactivity”.

For “QVHLVESGGGLVQAGGSLRLSCAASGSIFYVYAMVWYRQAPGKERELVAAITWSGGSTYYADSVKGRFTISRDNAKNTVYLQMNSLNPEDTAVYYCAADEGYDYPYYYWGQGTQVSVSS”, the “polyreactivity (PSR sort gate)” value was “high polyreactivity”.

With “QVQLVESGGGLVQAGGSLRLSCAASGLTFQWNAMGWYRQATGKERELVAVITDIGDSTYYADSVKGRFTISRDNAKNTVYLQMNSLKPEDTAVYYCAADFGTISIDVYSWMDYWGQGTQVTVSS” the “polyreactivity (PSR sort gate)” value was “low polyreactivity”.

In the case of “QVQLVESGGGLVQAGGSLRLSCAASGLTFWANTMGWYRQAPGKERELVAAITWSGGSTYYADSVKGRFTISRDNAKNTVNLQMNSLKPEDTAVYYCAADEYFAAGYSYYYWGQGSQVTVSS”, the “polyreactivity (PSR sort gate)” value was “low polyreactivity”.

For “QVQLVESGGGLVHAGGSLRLSCAASGSIFDFNAMGWYRQVPGKERELVAAITSGGSTNYADSVKGRFTISRDNAKNTVYLQMNSLKPEDTAVYYCAARPARGASQGGYVRPWWYDSWGQGTQVTVSS”, the “polyreactivity (PSR sort gate)” value was “low polyreactivity”.

In the case of “QVQLVESGGGLVQAGGSLRLSCAASGRTFRYYAMGWYRQAPGKERELVASITSGGRTYYADSVKGRFTISRDNAKNTVYLQMNSLKPEDTAVYYCAADRFGIGGKRGNDYWGQGTQVTVSS”, the “polyreactivity (PSR sort gate)” value was “high polyreactivity”.

In the case of “QVQLVESGGGLDQAGGSLRLSCAASGRTFFDYAMGWYRQATGKERELVAAINWSGGRTYYADSVKGRFTISRDNAKNTVYLQMISLKPEDTAVYYCAAIYGSLYPTGQTRRDYYSWGQGTKVTVSS”, the “polyreactivity (PSR sort gate)” value was “low polyreactivity”.

With “QVQLVESGGGLVQAGVSLRLSCAASGITFNHYTMGWYRQAPGKERELVAAISSRGSTTYYADSVKGRFTISRDNAKNTVYLQMNSLKPEDTAVYYCAAVYYLYSAWRYDYWGQGTQVTVSS” the “polyreactivity (PSR sort gate)” value was “high polyreactivity”.

For “QVQLVVSGGGLVQAGGSLRLSCAASGSTFYAYAMGWYRQAPGKERELVARIRWRGGRTYYADSVKGRFTISRDNAKNTVYLRMNSLKPEDTAVYYCNRGYYSYYGRYYYWGQGTQVTLSS”, the “polyreactivity (PSR sort gate)” value was “high polyreactivity”.

With “QVQLVESGGGLVQAGGSLRLSCAASGRIFKVYAMGWYIQAPGKERELVAVISRGGSTYYADSVKGRFTISRDNAKNTVYLQMNSLKPEDTAVYYCAARLTYTGGQGAYDYWGQGTQVTVSS” the “polyreactivity (PSR sort gate)” value was “high polyreactivity”.

With “QDQLVESGRGLVQEGGSLRLSCAASGSIFWSNGMGWYRQAPGKERELVATISSSGSDTYYAASVKGRFTISRDTAKNTVYFQMNSLKPEDTAVYYCNVYSIWGTYDYRGQGTQVTVSS” the “polyreactivity (PSR sort gate)” value was “low polyreactivity”.

For “QVQLVESGGGLVHAGCSLPLTCAASGSTLDANAMGSYRQAPGKEMELVAAISSGGITYYADSVKGRFTFSRDNAKSTVYLQMNCLKPEDTAGYYCANRGQGFQFGRDYWGQGTQVTVSS”, the “polyreactivity (PSR sort gate)” value was “low polyreactivity”.

For “QVQLVESGGGLVQAGGSLRLSCAASGSIFGYYTMGWYIQAPGKERELVAAITSGGSTNYADSVKGRFTISRDNAKNTVYLQMNSLKPEDTAVYYCAKVSYYPWRYDYWGQGTQVTVSS”, the “polyreactivity (PSR sort gate)” value was “low polyreactivity”.

With “QVQLVESGGGLVQAGGSLRLISAASGSIFPAYDMGLYRQAPGKEREFLPAIERGGSTYYADSVKGRYTISRDNAKNTVYLPMNSLKPVDTAVFYCATDCPEYPNYISSAGFDYWGQGTQVNVSS” the “polyreactivity (PSR sort gate)” value was “low polyreactivity”.

With “QVQLVESGGGLVQAGGSLRLSCAASGRIFYFNAMGWYRQAPGKEWELVAVINSSGSTDYADSVKGRFTISRDNAKNTVYLQMNSLKPEDTAVYYCAAEVTPSGYGYWGQGTQVTVSS” the “polyreactivity (PSR sort gate)” value was “low polyreactivity”.

For “QVQLVESGGGLFQAGGSLRLSCAASGSIFSWNDMGWYRQAPGKERELVAAINWNGGSTYYADSVKGRFTISRDNEKNSVYLQMNSLKPEYSEVYYCAAERSLYYVYSREYWGQGTQVTVSS”, the “polyreactivity (PSR sort gate)” value was “low polyreactivity”.

With “QVQLVESGGGLVQAGGSLRISCAASGRIFYYNVMGWYRQAPGKEWELVASISYSSTRTYYADSVKGRFTISRDNGMNTFYLQMNSLKPEDTAVYYCAVDGYSYYSMDYWGQGTQVTVSS” the “polyreactivity (PSR sort gate)” value was “low polyreactivity”.

For “QVQLVESGGGLVQAGGSLRLSCAASGRIFSVNAMGWYRQATGKERELVASITMSGGSTYYADSVKGRFTISRDNAKNTVYIQMNSLKPEDTAVYYCAKGWSRYNDRERDDEYWGQGTQVTVSS”, the “polyreactivity (PSR sort gate)” value was “low polyreactivity”.

With “QDQLVESGGGLVQAGGSLRLSCAASVFIFYSYTRGWYRQAPGKERELVATISSNGGRTYYADSVKGRFTISRDNAKNTVYLQMNSLKPEDTAVYYCATDVPHGYYWSYGDYYCGQGTQVTVSS” the “polyreactivity (PSR sort gate)” value was “low polyreactivity”.

For “QVQLVESGGGLVQAGGSLRLSCAASGRIYWNDMGWYRQAPGKERELVAAISWGGDRTYYADSVKGRFTISRDNAKNSFYLQMNSLKPEDTAVYYFNAPGYLTYDHSYDYWGQGTQVTVSS”, the “polyreactivity (PSR sort gate)” value was “low polyreactivity”.

In the case of “QVQLVESGGGLVQAGGSLRLSCAASGSTFVYYAMGWYRQAPGKERELVAASTYADSVKGRFTISRDNAKNTVYLQMNSLKPEDTAVYYCAADFVSAYFTIYDYWGQGTQVTVSS”, the “polyreactivity (PSR sort gate)” value was “low polyreactivity”.

For “QVQLVESGGGLVQAGGSLRLSCAASGIIFSPYAMGWYRQAPGKERELVAAISYSGGSTYYADSVKGRFTITRDNAKNTVYLQMNSLKPEDTAVYYCAVVYSYYLAVLGYWDYDYWGQGTQVTVSS”, the “polyreactivity (PSR sort gate)” value was “low polyreactivity”.

With “QVQLVESGGGLVQAGGSLRLSCAASGSTFVGYAMGWYRPAPGKDRELVADIDSIGGSTYYADSVKGRFTISRDNAKNTVYVQMNSPKPEDTAVYYCAKTWYPWSRSGYYRRYDSWGQGTQVTVSS” the “polyreactivity (PSR sort gate)” value was “low polyreactivity”.

For “QVQLVESGGGLVQAGGSLRLSCAASGRTFDSYTMGWYRQAPGKERELVARIRWSGGSTYYADSVKGRFTISRDNAKNTVYLQMNSLKPEDTAVYYCAVYQYVGYTMDYWGQGTQVTVSS”, the “polyreactivity (PSR sort gate)” value was “low polyreactivity”.

With “QVQLVETGGGLVQAGGSLRLSCAASGSIFSIYAMGWYRQAPGKERELVAAISWSGGSTYYADSVKGRFTISRDNAKNTVYLQMNSLKPEDTAVYYCLRQDYHYHPYDYWGQGTQVTVSS” the “polyreactivity (PSR sort gate)” value was “low polyreactivity”.

In the case of “QVQLVESGGGLVQAGGSLRLSCAASGIIFWRYAMGWYRQAPGKERELVAAIRYRAGSTYYADSVKGRFTISRDNAKNTVYLQLNSLKPEDTAVYYCAAGWWTSPDRRGGDYWGQGTQVTVSS”, the “polyreactivity (PSR sort gate)” value was “high polyreactivity”.

For “KVQLVESVGGLVQAGGSLRLSCAASGFTFCRNTMGWYRQAPGKEREFVAAITVTGGSTYYADSVKGRFTISRDNAKNTVYLQMNSLKPEDTAVYYCAAGWTSAYVNYDYWGQGTQVTVSS”, the “polyreactivity (PSR sort gate)” value was “low polyreactivity”.

In the case of “QVQLVESGGGLVQAGGSLRLSCAASGFIFFKYAMRWYRQAPGKEREFVAAISKSGTSTYYADSVKGRFTISRDNAKNTVYLQMNSLKPEDTAVYYCAARKDSYYYRSYDSWGQGTQVTVSS”, the “polyreactivity (PSR sort gate)” value was “high polyreactivity”.
